B1: IKZF1 (parent)
chain: YHSQDRYEFSSHITRGEHRFHMS
B2: STX5 (parent)
chain: RSEFTLMAKRIGKDLSNTFAKLEK

Variants of: B1
Experiment: protein stability index of a GFP-peptide fusion (GPS, HEK-293T) (PSI 1-6); higher = more stable
Conditions: c terminus: native
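Note: lentivirally expressed fusions sorted by FACS into six bins by GFP to DsRed ratio, PSI derived from sequencing read proportions per bin multiplied by bin number.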

Protein stability index, by site and new letter:
S11: E 2.15; N 1.92
H21: Q 2.22; R 2.88
F20: P 1.59; C 2.12
R19: A 2.47; F 2.39; V 2.16; Y 2.16
I13: T 1.97; A 1.85; V 1.78
F9: D 1.98
Y1: P 3.84; T 3.5
G16: S 1.5; W 1.51; R 2.38; K 2.27
D5: V 2.31; S 1.79; A 1.5
H2: Q 2.4
S3: V 2.15; P 2.5
H18: C 2.04; N 1.45
Q4: E 3.35; F 2.33
Y7: M 1.95; Q 2.04; T 1.85
S23: Q 2.68; R 1.61
E8: N 3.99; R 1.8
T14: G 1.54; F 1.47; M 1.84
R6: H 1.8; S 1.87
E17: A 2.75; R 1.94
H12: T 2.15
M22: L 1.4
S10: F 2.1; Y 2

Variants of: B2
Experiment: as above
Conditions: c terminus: a fixed tail appended

Protein stability index, by site and new letter:
L6: N 2.06; C 2.21; G 1.63; R 3.66; I 3.08; F 2.36; T 2.48; H 1.86; W 2.53; Q 2.23; V 2.28
S2: Q 3.27; N 1.03; W 2.39; T 1.9; P 2.07; F 2.72; G 1.51
E23: I 2.84; W 2.37; A 1.98; D 2.2; L 3; F 2.65; P 2.32; M 1.34; C 3.47; H 3.8
K21: D 1.91; I 2.12; R 2.53; S 2.95; F 2.61; N 1.04; E 2.04; Q 2.8; M 1.94; H 2.51; P 2.38; T 2.01; C 2.69; V 1.4; G 2.21; A 1.96
G12: C 2.2; H 2.87; N 1.81; D 2.9; P 3.81; E 2.42; L 3.53; M 2.58; F 2.15; R 2.16; S 3.15; K 2.79
F4: D 3.88; L 2.33; M 2.35; A 2.48; Y 2.1; P 3.58; Q 3.49; G 3.64; R 3.34; W 3.86; V 1.8; C 2.65; N 2.98; K 3.62
T5: N 2.57; P 2.69; I 2.62; W 2.76; K 1.54; F 3.04; H 2.58
R1: Y 4.8; N 1.82; K 2.08; H 3.98; T 2.7; I 1.92; A 2.12; D 1.92; V 2.54; E 1.45; P 2.63; S 2.54
T18: P 2.45; E 2.94; G 3.21; I 3.4; R 1.77; D 3.07; Y 3.54; K 3.25; W 1.96; V 2.21; F 4.45; H 2.41; N 1.27; C 2.41; Q 2.02; S 1
S16: Q 2.14; C 1.65; W 1.99; P 2.46; G 2.41; R 3.34; V 3.75; F 4.43; K 3.85; I 3.35; L 2.89
K24: H 2.46; P 2.42; V 2.42; E 1.76; Y 3.59; L 2.38; Q 1.66; D 2.61; M 3.26; T 3.14; R 2.5; N 3.22
A8: T 1.54; Q 2.96; S 2.1; N 3.4; H 3.46; R 2.79; K 2.99; P 3.46; I 2.79
M7: E 3.2; Q 3.21; D 4.15; F 3.38; T 2.54; V 2.73; R 2.72; K 3.75; S 3.12; Y 2.39; H 2.03
L15: S 2.81; F 2.92; Y 2.4; H 2.6; D 3.46; M 2.72; A 2.59; E 3.89; V 1.9; K 3.24; P 3.14; C 1.53; T 3.27; I 3.43
F19: V 1.96; W 2.48; S 3.85; M 1.62; H 3.27; C 2.69; T 3.8; Y 2.38; N 3.42; I 2.24; E 4.74; K 2.71; R 3.88; D 4.69
N17: Y 1.93; L 2.21; W 1.81; D 2.63; A 3.04; P 2.5; F 2.34; Q 1.61; S 3.13
D14: M 2.59; E 4.59; C 2.71; L 2.61; A 4.25; K 3.03; G 3.97; P 2.49; T 4.17; V 2.64; I 4.05; S 2.13
E3: C 2.91; Q 4.2; H 2.61; R 3.64; K 2.75
K9: G 2.01; F 1.53; W 1.97; M 1.92; N 2.63; T 2.06; I 1.82; V 2.17; C 2.1; L 1.88; P 2.94; H 2.64; Y 2.99
I11: H 3.46; K 2.93; S 3.87; E 3.9; V 1.16; R 3.81; Q 3.33; G 3.41; N 4.29; Y 2.14; M 1.65; W 1.18; A 2.77; C 2.06; T 3.13; L 1.57; P 3.52; D 3.84; F 3.65
A20: S 1.32; W 2.44; P 3.3; D 2.15; M 2.64; C 3.2; T 2.69; I 1.63; E 1.58
K13: L 2.83; T 1.46; E 2.34; R 2.33; V 2.1; F 3.26; G 2.84; D 3.34; P 2.54; Q 2.35; N 2.06; A 1.49; M 1.07; S 2.55
L22: Q 2.92; G 3.27; K 2.47; M 2.58; S 3.17; H 2.7; D 4.25; I 4.01; N 3.15; E 3.74; T 2.7; C 1.79
R10: S 2.11; A 2.85; V 1.09; Q 1.05; Y 1.28; G 2.35; H 2.01; L 2.73; C 2.66; N 2.36; F 2.29; P 4.03; E 2.94; T 1.99; I 1.95; D 3.12; K 3.31
